Consider 1 molecule from paper PMC12299175 (2025).

The target of the assay is synthetic peptide of stem helix (1141-1161) of SARS-CoV-2 WT S with biotin at C terminus (SARS-CoV-2, UniProt P0DTC2 1141-1161, biotin at C terminus). In words: BLI. On the technique in general: BLI is a label-free optical method that tracks binding on a fibre tip over time.

B1: S2P6 recombinant mAb with human IgG1 constant region (antibody, V domains shown)
VH: EVQLVQSGAEVKKPGASVKVSCKASGYTFTSQYMHWVRQAPGQGLEWIGIINPSGVHTSYAQKFQGRVTLTRDTSTSTLYMELSSLRSEDTAVYYCARGSPKGAFDYWGQGTLVTVSS
VL: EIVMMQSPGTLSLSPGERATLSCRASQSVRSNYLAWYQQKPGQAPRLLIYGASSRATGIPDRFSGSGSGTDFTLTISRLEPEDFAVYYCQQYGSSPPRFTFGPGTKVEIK
As a reminder, the koff is the first-order rate constant of dissociation. Take B1: the koff was under 1e-06 s⁻¹.
